From publication PMC7587188

Biological target: B-Glucosidase
Experiment: ITC; 1 mM BSA in the syringe, 10 uL injections into 66 uM B-GLU in the cell; 25 °C; PBS pH 6; VP-ITC; fitted with AFFINImeter, independent sites approach (GoF = 50.81%)

Bovine Serum Albumin (from UniProt P02769 25-607) (natural protein)
Ka: 530000 M⁻¹
Kd: 1.9 µM
dH: -0.26 kcal/mol
stoichiometry N: 1.23
